According to patent publication US20230212256A1 (University of Texas, published 2023):

B1: VGLL1 TCR #2 (TCR, V domains shown)
Valpha: ENVEQHPSTLSVQEGDSAVIKCTYSDSASNYFPWYKQELGKRPQLIIDIRSNVGEKKDQRIAVTLNKTAKHFSLHITETQPEDSAVYFCAARGLTGGGNKLTFGTGTQLKVEL
Vbeta: GVTQSPTHLIKTRGQQVTLRCSPKSGHDTVSWYQQALGQGPQFIFQYYEEEERQRGNFPDRFSGHQFPNYSSELNVNALLLGDSALYLCASSVGTGITEAFFGQGTRLTVV
B2: VGLL1 TCR #3 (TCR, V domains shown)
Valpha: ENVEQHPSTLSVQEGDSAVIKCTYSDSASNYFPWYKQELGKRPQLIIDIRSNVGEKKDQRIAVTLNKTAKHFSLHITETQPEDSAVYFCAAIPNSGGYQKVTFGIGTKLQVIP
Vbeta: B1 Vbeta
B3: VGLL1 TCR #4 (TCR, V domains shown)
Valpha: QQQVKQSPQSLIVQKGGISIINCAYENTAFDYFPWYQQFPGKGPALLIAIRPDVSEKKEGRFTISFNKSAKQFSLHIMDSQPGDSATYFCAAVRYNFNKFYFGSGTKLNVKP
Vbeta: B1 Vbeta
B4: VGLL1 TCR #1 (TCR, V domains shown)
Valpha: AQKVTQAQTEISVVEKEDVTLDCVYETRDTTYYLFWYKQPPSGELVFLIRRNSFDEQNEISGRYSWNFQKSTSSFNFTITASQVVDSAVYFCALSPGANSKLTFGKGITLSVRP
Vbeta: DAGVTQSPTHLIKTRGQQVTLRCSPKSGHDTVSWYQQALGQGPQFIFQYYEEEERQRGNFPDRFSGHQFPNYSSELNVNALLLGDSALYLCASSVGTGITEAFFGQGTRLTVV
B5: VGLL1-derived 10-mer peptide LSELETPGKY (peptide)
peptide: LSELETPGKY
notes: This is the native peptide eluted from immunoprecipitated HLA class I. The 13C/15N-lysine labeled synthetic peptide served only as the MS standard; also called VGLL1 231-240 peptide; VGLL1 peptide

Tests used:
[1] = target: T1, VGLL1 (Vestigial-like 1) peptide on HLA-A*01:01 (human); test: multimer staining
T1 peptide: LSELETPGKY

HLA-A*0101 = target: T2, HLA-A*0101 (human); test: HLA class I immunoprecipitation, acid elution, tandem MS
T2 construct: whole, on cells; The peptide was eluted from total HLA class I immunoprecipitated with W6/32; also called HLA-A1; HLAA1
Experimental: Protein A/G Ultralink resin beads were used to immunoprecipate HLA class I molecules and HLA-bound peptides were then eluted with 0.1M acetic acid. HLA-A, B, C isolation was confirmed by Western blot analysis, then HLA-positive elutes were analyzed by tandem mass spectrometry (MS/MS). HLA class I protein recovery was semi-quantitatively assessed by rating Western blot band intensity on a scale from 0 (not detectable) to 4 (highest intensity). Tumor-associated HLA-bound peptides were injected onto HPLC system (Dionex 3000 RSLC), and separated by reverse-phase chromatography in 0.1% formic acid water-acetonitrile on 1.8 μm C18 (Agilent Technologies) in the MS/MS discovery phase. Peptides were analyzed on an Orbitrap Elite mass spectrometer (Thermo-Fisher) using data-dependent acquisition.

| Binder | binding result [1] | binding result (HLA-A*0101) |
| --- | --- | --- |
| B1 | recognises | – |
| B2 | recognises | – |
| B3 | recognises | – |
| B4 | recognises | – |
| B5 | – | binds |
